Target: recombinant WBSCR16-GST fusion protein (mouse, UniProt Q9CYF5 35-461)
Assay: SPR

B1: recombinant MRPP3-His fusion protein (230–583 amino acids of MRPP3) (domain or fragment)
chain: LLLLEDIKKVITPSKKNYNDCIQGALLHQDVNTAWNLYQELLGHDIVPMLETLKAFFDFGKDIKDDNYSNKLLDILSYLRNNQLYPGESFAHSIKTWFESVPGKQWKGQFTTVRKSGQCSGCGKTIESIQLSPEEYECLKGKIMRDVIDGGDQYRKTTPQELKRFENFIKSRPPFDVVIDGLNVAKMFPKVRESQLLLNVVSQLAKRNLRLLVLGRKHMLRRSSQWSRDEMEEVQKQASCFFADDISEDDPFLLYATLHSGNHCRFITRDLMRDHKACLPDAKTQRLFFKWQQGHQLAIVNRFPGSKLTFQRILSYDTVVQTTGDSWHIPYDEDLVERCSCEVPTKWLCLHQKT
Kd: 37 nM

Source: PMC11775607 (Nucleic Acids Research, 2025)
